Results as given in the supplement of paper PMC5998384.

Assays:
HeLa Kyoto [1] = test: solubility in G1/S (NP-40 vs SDS abundance) (log2 ratio); higher = more soluble; details: cell cycle stage: G1/S
HeLa Kyoto [2] = test: melting temperature (median over replicates), in situ; higher = more thermally stable
HeLa Kyoto [3] = test: solubility change mitosis vs G1/S (difference of NP-40 vs SDS log2 ratios) (log2 ratio difference); higher = more soluble in mitosis
HeLa Kyoto [4] = test: thermal stability score vs G1/S (z-score of summed log2 fold changes over temperatures); higher = more thermally stable than in G1/S
[5] = cell cycle stage: early G1 (4.5 h after nocodazole release)
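For melting temperature (median over replicates), in situ in this document: HeLa Kyoto cells synchronized by double thymidine or nocodazole block, proteins quantified by TMT10plex mass spectrometry, three independent biological replicates.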
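For solubility change mitosis vs G1/S (difference of NP-40 vs SDS log2 ratios) in this document: synchronized HeLa Kyoto cells (double thymidine block for G1/S, nocodazole release for mitosis), protein amounts in NP-40 versus SDS lysates quantified by mass spectrometry, three biological replicates.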
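For solubility in G1/S (NP-40 vs SDS abundance) in this document: HeLa Kyoto cells arrested at G1/S by double thymidine block, proteins quantified by TMT10plex mass spectrometry in mild NP-40 versus SDS extracts, three biological replicates.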
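For thermal stability score vs G1/S (z-score of summed log2 fold changes over temperatures) in this document: synchronized HeLa Kyoto cells, proteins quantified by TMT10plex mass spectrometry, three biological replicates, mitosis taken 0.5 h after nocodazole release, G1/S directly after double thymidine block.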

Row | Sequence | solubility in G1/S (log2) (HeLa Kyoto [1]) | melting temperature (HeLa Kyoto [2]; cell cycle stage: G1/S) [°C] | melting temperature (HeLa Kyoto [2]; cell cycle stage: mitosis) [°C] | solubility change mitosis (log2) (HeLa Kyoto [3]) | thermal stability score (HeLa Kyoto [4]; [5]) | thermal stability score (HeLa Kyoto [4]; cell cycle stage: mitosis)
1 | MTSMASLFSFTSPAVKRLLGWKQGDEEEKWAEKAVDALVKKLKKKKGAMEELEKALSSPGQPSKCVTIPRSLDGRLQVSHRKGLPHVIYCRVWRWPDLQSHHELKPLDICEFPFGSKQKEVCINPYHYKRVESPVLPPVLVPRHNEFNPQHSLLVQFRNLSHNEPHMPQNATFPDSFHQPNNTPFPLSPNSPYPPSPASSTYPNSPASSGPGSPFQLPADTPPPAYMPPDDQMGQDNSQPMDTSNNMIPQIMPSISSRDVQPVAYEEPKHWCSIVYYELNNRVGEAFHASSTSVLVDGFTDPSNNKSRFCLGLLSNVNRNSTIENTRRHIGKGVHLYYVGGEVYAECLSDSSIFVQSRNCNFHHGFHPTTVCKIPSSCSLKIFNNQEFAQLLAQSVNHGFEAVYELTKMCTIRMSFVKGWGAEYHRQDVTSTPCWIEIHLHGPLQWLDKVLTQMGSPLNPISSVS [SMAD5] | -0.0752 | 50.3 | 50 | -0.0922 | 0.616 | 0.53
2 | MTSMTQSLREVIKAMTKARNFERVLGKITLVSAAPGKVICEMKVEEEHTNAIGTLHGGLTATLVDNISTMALLCTERGAPGVSVDMNITYMSPAKLGEDIVITAHVLKQGKTLAFTSVDLTNKATGKLIAQGRHTKHLGN [ACOT13] | 0.372 | 56.4 | 57.7 | -0.0848 | -1.62 | -1.82
3 | MTSPAAAQSREIDCLSPEAQKLAEARLAAKRAARAEAREIRMKELERQQKEEDSERYSRRSRRNTSASDEDERMSVGSRGSLRVEERPEKDFTEKGSRNMPGLSAATLASLGGTSSRRGSGDTSISIDTEASIREIKELNELKDQIQDVEGKYMQGLKEMKDSLAEVEEKYKKAMVSNAQLDNEKTNFMYQVDTLKDMLLELEEQLAESRRQYEEKNKEFEREKHAHSILQFQFAEVKEALKQREEMLEKHGIILNSEIATNGETSDTLNNVGYQGPTKMTKEELNALKSTGDGTLGRASEVEVKNEIVANVGKREILHNTEKEQHTEDTVKDCVDIEVFPAGENTEDQKSSEDTAPFLGTLAGATYEEQVQSQILESSSLPENTVQVESNEVMGAPDDRTRTPLEPSNCWSDLDGGNHTENVGEAAVTQVEEQAGTVASCPLGHSDDTVYHDDKCMVEVPQELETSTGHSLEKEFTNQEAAEPKEVPAHSTEVGRDHNEEEGEETGLRDEKPIKTEVPGSPAGTEGNCQEATGPSTVDTQNEPLDMKEPDEEKSDQQGEALDSSQKKTKNKKKKNKKKKSPVPVETLKDVKKELTYQNTDLSEIKEEEQVKSTDRKSAVEAQNEVTENPKQKIAAESSENVDCPENPKIKLDGKLDQEGDDVQTAAEEVLADGDTLDFEDDTVQSSGPRAGGEELDEGVAKDNAKIDGATQSSPAEPKSEDADRCTLPEHESPSQDISDACEAESTERCEMSEHPSQTVRKALDSNSLENDDLSAPGREPGHFNPESREDTRGGNEKGKSKEDCTMS [LRRFIP1] | 0.265 | 58.7 |  | 0.0557 | -2.05 | -2.56
4 | MTSRFGKTYSRKGGNGSSKFDEVFSNKRTTLSTKWGETTFMAKLGQKRPNFKPDIQEIPKKPKVEEESTGDPFGFDSDDESLPVSSKNLAQVKCSSYSESSEAAQLEEVTSVLEANSKISHVVVEDTVVSDKCFPLEDTLLGKEKSTNRIVEDDASISSCNKLITSDKVENFHEEHEKNSHHIHKNADDSTKKPNAETTVASEIKETNDTWNSQFGKRPESPSEISPIKGSVRTGLFEWDNDFEDIRSEDCILSLDSDPLLEMKDDDFKNRLENLNEAIEEDIVQSVLRPTNCRTYCRANKTKSSQGASNFDKLMDGTSQALAKANSESSKDGLNQAKKGGVSCGTSFRGTVGRTRDYTVLHPSCLSVCNVTIQDTMERSMDEFTASTPADLGEAGRLRKKADIATSKTTTRFRPSNTKSKKDVKLEFFGFEDHETGGDEGGSGSSNYKIKYFGFDDLSESEDDEDDDCQVERKTSKKRTKTAPSPSLQPPPESNDNSQDSQSGTNNAENLDFTEDLPGVPESVKKPINKQGDKSKENTRKIFSGPKRSPTKAVYNARHWNHPDSEELPGPPVVKPQSVTVRLSSKEPNQKDDGVFKAPAPPSKVIKTVTIPTQPYQDIVTALKCRREDKELYTVVQHVKHFNDVVEFGENQEFTDDIEYLLSGLKSTQPLNTRCLSVISLATKCAMPSFRMHLRAHGMVAMVFKTLDDSQHHQNLSLCTAALMYILSRDRLNMDLDRASLDLMIRLLELEQDASSAKLLNEKDMNKIKEKIRRLCETVHNKHLDLENITTGHLAMETLLSLTSKRAGDWFKEELRLLGGLDHIVDKVKECVDHLSRDEDEEKLVASLWGAERCLRVLESVTVHNPENQSYLIAYKDSQLIVSSAKALQHCEELIQQYNRAEDSICLADSKPLPHQNVTNHVGKAVEDCMRAIIGVLLNLTNDNEWGSTKTGEQDGLIGTALNCVLQVPKYLPQEQRFDIRVLGLGLLINLVEYSARNRHCLVNMETSCSFDSSICSGEGDDSLRIGGQVHAVQALVQLFLERERAAQLAESKTDELIKDAPTTQHDKSGEWQETSGEIQWVSTEKTDGTEEKHKKEEEDEELDLNKALQHAGKHMEDCIVASYTALLLGCLCQESPINVTTVREYLPEGDFSIMTEMLKKFLSFMNLTCAVGTTGQKSISRVIEYLEHC [WAPL] | -0.00224 | 48.1 | 49.9 | -0.133 | 0.873 | 2.77
5 | MTSSRLWFSLLLAAAFAGRATALWPWPQNFQTSDQRYVLYPNNFQFQYDVSSAAQPGCSVLDEAFQRYRDLLFGSGSWPRPYLTGKRHTLEKNVLVVSVVTPGCNQLPTLESVENYTLTINDDQCLLLSETVWGALRGLETFSQLVWKSAEGTFFINKTEIEDFPRFPHRGLLLDTSRHYLPLSSILDTLDVMAYNKLNVFHWHLVDDPSFPYESFTFPELMRKGSYNPVTHIYTAQDVKEVIEYARLRGIRVLAEFDTPGHTLSWGPGIPGLLTPCYSGSEPSGTFGPVNPSLNNTYEFMSTFFLEVSSVFPDFYLHLGGDEVDFTCWKSNPEIQDFMRKKGFGEDFKQLESFYIQTLLDIVSSYGKGYVVWQEVFDNKVKIQPDTIIQVWREDIPVNYMKELELVTKAGFRALLSAPWYLNRISYGPDWKDFYIVEPLAFEGTPEQKALVIGGEACMWGEYVDNTNLVPRLWPRAGAVAERLWSNKLTSDLTFAYERLSHFRCELLRRGVQAQPLNVGFCEQEFEQT [HEXA] | 0.295 | 56.7 | 56.1 | -0.164 | 0.922 | 0.624
6 | MTTETGPDSEVKKAQEEAPQQPEAAAAVTTPVTPAGHGHPEANSNEKHPSQQDTRPAEQSLDMEEKDYSEADGLSERTTPSKAQKSPQKIAKKYKSAICRVTLLDASEYECEVEKHGRGQVLFDLVCEHLNLLEKDYFGLTFCDADSQKNWLDPSKEIKKQIRSSPWNFAFTVKFYPPDPAQLTEDITRYYLCLQLRADIITGRLPCSFVTHALLGSYAVQAELGDYDAEEHVGNYVSELRFAPNQTRELEERIMELHKTYRGMTPGEAEIHFLENAKKLSMYGVDLHHAKDSEGIDIMLGVCANGLLIYRDRLRINRFAWPKILKISYKRSNFYIKIRPGEYEQFESTIGFKLPNHRSAKRLWKVCIEHHTFFRLVSPEPPPKGFLVMGSKFRYSGRTQAQTRQASALIDRPAPFFERSSSKRYTMSRSLDGAEFSRPASVSENHDAGPDGDKRDEDGESGGQRSEAEEGEVRTPTKIKELKPEQETTPRHKQEFLDKPEDVLLKHQASINELKRTLKEPNSKLIHRDRDWERERRLPSSPASPSPKGTPEKANERAGLREGSEEKVKPPRPRAPESDTGDEDQDQERDTVFLKDNHLAIERKCSSITVSSTSSLEAEVDFTVIGDYHGSAFEDFSRSLPELDRDKSDSDTEGLLFSRDLNKGAPSQDDESGGIEDSPDRGACSTPDMPQFEPVKTETMTVSSLAIRKKIEPEAVLQTRVSAMDNTQQVDGSASVGREFIATTPSITTETISTTMENSLKSGKGAAAMIPGPQTVATEIRSLSPIIGKDVLTSTYGATAETLSTSTTTHVTKTVKGGFSETRIEKRIIITGDEDVDQDQALALAIKEAKLQHPDMLVTKAVVYRETDPSPEERDKKPQES [EPB41L1] | -0.0349 | 49.6 | 50 | -0.0516 | 0.332 | 0.235
7 | MTTPALLPLSGRRIPPLNLGPPSFPHHRATLRLSEKFILLLILSAFITLCFGAFFFLPDSSKHKRFDLGLEDVLIPHVDAGKGAKNPGVFLIHGPDEHRHREEEERLRNKIRADHEKALEEAKEKLRKSREEIRAEIQTEKNKVVQEMKIKENKPLPPVPIPNLVGIRGGDPEDNDIREKREKIKEMMKHAWDNYRTYGWGHNELRPIARKGHSPNIFGSSQMGATIVDALDTLYIMGLHDEFLDGQRWIEDNLDFSVNSEVSVFEVNIRFIGGLLAAYYLSGEEIFKIKAVQLAEKLLPAFNTPTGIPWAMVNLKSGVGRNWGWASAGSSILAEFGTLHMEFIHLSYLTGDLTYYKKVMHIRKLLQKMDRPNGLYPNYLNPRTGRWGQYHTSVGGLGDSFYEYLLKAWLMSDKTDHEARKMYDDAIEAIEKHLIKKSRGGLTFIGEWKNGHLEKKMGHLACFAGGMFALGADGSRADKAGHYLELGAEIARTCHESYDRTALKLGPESFKFDGAVEAVAVRQAEKYYILRPEVIETYWYLWRFTHDPRYRQWGWEAALAIEKYCRVNGGFSGVKDVYSSTPTHDDVQQSFFLAETLKYLYLLFSGDDLLPLDHWVFNTEAHPLPVLHLANTTLSGNPAVR [MAN1A2] | -0.0642 | 54.1 | 54.3 | -0.0976 | -0.726 | -1.7
8 | MTTYLEFIQQNEERDGVRFSWNVWPSSRLEATRMVVPVAALFTPLKERPDLPPIQYEPVLCSRTTCRAVLNPLCQVDYRAKLWACNFCYQRNQFPPSYAGISELNQPAELLPQFSSIEYVVLRGPQMPLIFLYVVDTCMEDEDLQALKESMQMSLSLLPPTALVGLITFGRMVQVHELGCEGISKSYVFRGTKDLSAKQLQEMLGLSKVPLTQATRGPQVQQPPPSNRFLQPVQKIDMNLTDLLGELQRDPWPVPQGKRPLRSSGVALSIAVGLLECTFPNTGARIMMFIGGPATQGPGMVVGDELKTPIRSWHDIDKDNAKYVKKGTKHFEALANRAATTGHVIDIYACALDQTGLLEMKCCPNLTGGYMVMGDSFNTSLFKQTFQRVFTKDMHGQFKMGFGGTLEIKTSREIKISGAIGPCVSLNSKGPCVSENEIGTGGTCQWKICGLSPTTTLAIYFEVVNQHNAPIPQGGRGAIQFVTQYQHSSGQRRIRVTTIARNWADAQTQIQNIAASFDQEAAAILMARLAIYRAETEEGPDVLRWLDRQLIRLCQKFGEYHKDDPSSFRFSETFSLYPQFMFHLRRSSFLQVFNNSPDESSYYRHHFMRQDLTQSLIMIQPILYAYSFSGPPEPVLLDSSSILADRILLMDTFFQILIYHGETIAQWRKSGYQDMPEYENFRHLLQAPVDDAQEILHSRFPMPRYIDTEHGGSQARFLLSKVNPSQTHNNMYAWGQESGAPILTDDVSLQVFMDHLKKLAVSSAA [SEC23A] | -0.0681 | 50 | 50.2 | -0.0745 | -0.157 | 0.129
9 | MVAACRSVAGLLPRRRRCFPARAPLLRVALCLLCWTPAAVRAVPELGLWLETVNDKSGPLIFRKTMFNSTDIKLSVKSFHCSGPVKFTIVWHLKYHTCHNEHSNLEELFQKHKLSVDEDFCHYLKNDNCWTTKNENLDCNSDSQVFPSLNNKELINIRNVSNQERSMDVVARTQKDGFHIFIVSIKTENTDASWNLNVSLSMIGPHGYISASDWPLMIFYMVMCIVYILYGILWLTWSACYWKDILRIQFWIAAVIFLGMLEKAVFYSEYQNISNTGLSTQGLLIFAELISAIKRTLARLLVIIVSLGYGIVKPRLGTVMHRVIGLGLLYLIFAAVEGVMRVIGGSNHLAVVLDDIILAVIDSIFVWFIFISLAQTMKTLRLRKNTVKFSLYRHFKNTLIFAVLASIVFMGWTTKTFRIAKCQSDWMERWVDDAFWSFLFSLILIVIMFLWRPSANNQRYAFMPLIDDSDDEIEEFMVTSENLTEGIKLRASKSVSNGTAKPATSENFDEDLKWVEENIPSSFTDVALPVLVDSDEEIMTRSEMAEKMFSSEKIM [TMEM87B] | -0.12 | 55.1 | 54.9 | -0.177 | -3.16 | -3.29
